Measured values published in publication PMC6756068, “The NF2 tumor suppressor merlin interacts with Ras and RasGAP, which may modulate Ras signaling” (Oncogene, 2019).

Target: T1, full-length (FL) RasGAP purified from E. coli (UniProt P20936 1-1047)
T1 construct: p120RasGAP (RASA1), full length; also called purified FL RasGAP; source: E. coli, purified
T1 sequence (looked up): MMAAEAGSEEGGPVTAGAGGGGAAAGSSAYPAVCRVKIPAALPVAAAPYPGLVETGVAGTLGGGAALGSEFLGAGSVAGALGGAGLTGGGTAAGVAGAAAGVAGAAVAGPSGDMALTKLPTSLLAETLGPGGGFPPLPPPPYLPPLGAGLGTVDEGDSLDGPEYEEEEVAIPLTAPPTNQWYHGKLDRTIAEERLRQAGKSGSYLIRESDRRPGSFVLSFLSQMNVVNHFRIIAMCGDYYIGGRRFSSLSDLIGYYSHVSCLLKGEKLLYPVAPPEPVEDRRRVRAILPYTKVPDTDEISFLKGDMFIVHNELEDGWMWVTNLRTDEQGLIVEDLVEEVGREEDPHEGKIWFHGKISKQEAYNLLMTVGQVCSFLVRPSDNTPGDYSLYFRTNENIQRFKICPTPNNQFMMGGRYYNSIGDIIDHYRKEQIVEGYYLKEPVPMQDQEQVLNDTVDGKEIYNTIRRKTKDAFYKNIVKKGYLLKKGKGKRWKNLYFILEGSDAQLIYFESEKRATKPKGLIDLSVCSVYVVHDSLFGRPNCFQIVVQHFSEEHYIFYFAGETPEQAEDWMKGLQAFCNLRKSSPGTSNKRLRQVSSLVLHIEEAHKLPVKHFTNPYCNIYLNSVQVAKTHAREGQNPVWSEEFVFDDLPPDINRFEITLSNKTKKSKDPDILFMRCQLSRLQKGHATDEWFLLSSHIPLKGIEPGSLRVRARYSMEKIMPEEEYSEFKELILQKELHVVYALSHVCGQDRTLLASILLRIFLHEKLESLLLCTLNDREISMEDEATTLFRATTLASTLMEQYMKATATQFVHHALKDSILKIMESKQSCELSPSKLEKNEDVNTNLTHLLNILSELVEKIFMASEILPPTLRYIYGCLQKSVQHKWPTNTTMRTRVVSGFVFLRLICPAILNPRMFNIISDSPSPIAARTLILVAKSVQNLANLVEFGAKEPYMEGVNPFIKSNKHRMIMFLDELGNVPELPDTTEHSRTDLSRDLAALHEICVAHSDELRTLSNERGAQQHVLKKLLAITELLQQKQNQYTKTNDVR
Assay: pull-down; GST-merlin fragments pull down FL RasGAP purified from E. coli; western blot
Details: both partners purified

binding result: binds
B1: GST-merlin aa 1–73 (domain or fragment, UniProt P35240 1-73, looked up)
chain: MAGAIASRMSFSSLKRKQPKTFTVRIVTMDAEMEFNCEMKWKGKDLFDLVCRTLGLRETWFFGLQYTIKDTVA
notes: merlin (NF2), part of the F1 subdomain of the FERM domain, aa 1-73; also called aa 1–73 fragment; part of merlin's F1 subdomain
